FireProtDB (doi:10.1021/bi00177a023)

Conditions: Aspergillus oryzae (strain ATCC 42149 / RIB 40), Thermal, DSC, NaCl 80 mM, reversible: yes, whole UniProt chain shown
[1] = pH 6, Sodium cacodylate-HCl 10 mM
[2] = pH 6.5, Sodium cacodylate-HCl 10 mM
[3] = pH 7, Sodium cacodylate-HCl 10 mM
[4] = pH 8.6, Sodium borate-HCl 10 mM

B1: Guanyl-specific ribonuclease T1 wild type, P00651 (protein)
chain: MMYSKLLTLTTLLLPTALALPSLVERACDYTCGSNCYSSSDVSTAQAAGYQLHEDGETVGSNSYPHKYNNYEGFDFSVSSPYYEWPILSSGDVYSGGSPGADRVVFNENNQLAGVITHTGASGNNFVECT
Which results are given for B1?
Tm (pH 5, Sodium acetate 10 mM): 58.8 °C; heat capacity change of unfolding (pH 5, Sodium acetate 10 mM): 0.89 kcal/mol/K; unfolding enthalpy (calorimetric) (pH 5, Sodium acetate 10 mM): 112 kcal/mol; unfolding enthalpy (van 't Hoff) (pH 5, Sodium acetate 10 mM): 115 kcal/mol; Tm [1]: 54.1 °C; heat capacity change of unfolding [1]: 1.28 kcal/mol/K; unfolding enthalpy (calorimetric) [1]: 111 kcal/mol; unfolding enthalpy (van 't Hoff) [1]: 110 kcal/mol; Tm [2]: 50.9 °C; heat capacity change of unfolding [2]: 1.23 kcal/mol/K; unfolding enthalpy (calorimetric) [2]: 106 kcal/mol; unfolding enthalpy (van 't Hoff) [2]: 112 kcal/mol; Tm [3]: 48.8 °C; heat capacity change of unfolding [3]: 1.21 kcal/mol/K; unfolding enthalpy (calorimetric) [3]: 108 kcal/mol; unfolding enthalpy (van 't Hoff) [3]: 108 kcal/mol; Tm [4]: 43.4 °C; heat capacity change of unfolding [4]: 1.2 kcal/mol/K; unfolding enthalpy (calorimetric) [4]: 94.7 kcal/mol; unfolding enthalpy (van 't Hoff) [4]: 109 kcal/mol; Tm (pH 9.7, glycine-NaOH 10 mM): 40.7 °C; heat capacity change of unfolding (pH 9.7, glycine-NaOH 10 mM): 1.22 kcal/mol/K; unfolding enthalpy (calorimetric) (pH 9.7, glycine-NaOH 10 mM): 79.7 kcal/mol; unfolding enthalpy (van 't Hoff) (pH 9.7, glycine-NaOH 10 mM): 102 kcal/mol
